Numbering of substitutions follows the chain as printed. In names and notes the source's numbering stands. Ends that are not written are not given here.
T1: N2 peptide (non-muscle myosin neo-epitope N2 12mer sequence)
T1 construct: also called N2 12-mer peptide
T1 peptide: LMKNMDPLNDNV

T2: Biotin-labeled N2 peptide (also: biotin label, position not given here)
T2 construct: also called immobilized N2
T2 peptide: LMKNMDPLNDNV

B1: Chimeric 21G6, human heavy chain constant region IgG1 (wild type) (antibody, V domains shown)
VH: QVQLQQPGAELVKPGASVKLSCKASGYTFTSYYMYWVKQRPGQGLEWIGGINPSNGGTNFNEKFKSKATLTVDKSSSTAYMQLSSLTSEDSAVYYCTRWGYDREWFAYWGQGTLVTVSA
VL: DIVMTQAAPSVPVTPGESVSISCRSSKSLLHSNGNTYLYWFLQRPGQSPQVLIYRMSNLASGVPDRFSGSGSGTAFTLRISRVEAEDVGVYYCMQHLEYPFTFGSGTKLEIKR
notes: also called CHIgG1 / Ch; ch21G6 IgG1
B2: Chimeric 21G6, human heavy chain constant region IgG4 (antibody, V domains shown)
VH: B1 VH
VL: B1 VL
notes: Human IgG4 constant region; also called CHIgG4 / Ch; ch21G6 IgG4
B3: H2-21G6 / L2-21G6, wild type human IgG1 (antibody, V domains shown)
VH: QVQLVQSGAEVKKPGASVKVSCKASGYTFTSYYMYWVRQAPGQGLEWIGGINPSNGGTNFNEKFKSKATMTVDKSTSTAYMELRSLRSDDSAVYYCTRWGYDREWFAYWGQGTLVTVSS
VL: DIVMTQSPLSLPVTPGEPASISCRSSKSLLHSNGNTYLYWFLQKPGQSPQLLIYRMSNLASGVPDRFSGSGSGTDFTLKISRVEAEDVGVYYCMQHLEYPFTFGQGTKLEIKR
notes: also called H2/L2
B4: H3-21G6 / L1-21G6, human IgG1 N297Q (antibody, V domains shown)
VH: B3 VH with A16S, M70I, R84S, D89E, S91T
VL: DIVMTQSPATLSVSPGERATISCRSSKSLLHSNGNTYLYWFQQKPGQPPKVLIYRMSNLASGVPARFSGSGSGTDFTLTISSVEPEDFATYYCMQHLEYPFTFGGGTKLEIKR
notes: also called H3/L1 N297Q
B5: H2-21G6 / L2-21G6, human IgG1 N297Q (antibody, V domains shown)
VH: B3 VH
VL: B3 VL
notes: also called H2/L2 N297Q
B6: H3-21G6 / L1-21G6, wild type human IgG1 (antibody, V domains shown)
VH: B3 VH with A16S, M70I, R84S, D89E, S91T
VL: B4 VL
notes: also called H3/L1
B7: H1-21G6 / L2-21G6, wild type human IgG1 (antibody, V domains shown)
VH: B3 VH with K12V, V20L, R38K, M70L, T76A, R84S, D89E, S91T
VL: B3 VL
notes: also called H1/L2
B8: H1-21G6 / L1-21G6, wild type human IgG1 (antibody, V domains shown)
VH: B3 VH with K12V, V20L, R38K, M70L, T76A, R84S, D89E, S91T
VL: B4 VL
notes: also called H1/L1
B9: H2-21G6 / L1-21G6, wild type human IgG1 (antibody, V domains shown)
VH: B3 VH
VL: B4 VL
notes: also called H2/L1
B10: H3-21G6 / L2-21G6, wild type human IgG1 (antibody, V domains shown)
VH: B3 VH with A16S, M70I, R84S, D89E, S91T
VL: B3 VL
notes: also called H3/L2
B11: H1-21G6 / L3-21G6, wild type human IgG1 (antibody, V domains shown)
VH: B3 VH with K12V, V20L, R38K, M70L, T76A, R84S, D89E, S91T
VL: B3 VL with S7T, P12S, V13Y, E17Q
notes: also called H1/L3
B12: H2-21G6 / L3-21G6, wild type human IgG1 (antibody, V domains shown)
VH: B3 VH
VL: B3 VL with S7T, P12S, V13Y, E17Q
notes: also called H2/L3
B13: H1-21G6 / L1-21G6, human IgG1 N297Q (antibody, V domains shown)
VH: B3 VH with K12V, V20L, R38K, M70L, T76A, R84S, D89E, S91T
VL: B4 VL
notes: also called H1/L1 N297Q
B14: H3-21G6 / L3-21G6, wild type human IgG1 (antibody, V domains shown)
VH: B3 VH with A16S, M70I, R84S, D89E, S91T
VL: B3 VL with S7T, P12S, V13Y, E17Q
notes: also called H3/L3
B15: H2-21G6 / L3-21G6, human IgG1 N297Q (antibody, V domains shown)
VH: B3 VH
VL: B3 VL with S7T, P12S, V13Y, E17Q
notes: also called H2/L3 N297Q
B16: H4-21G6 / L2-21G6, human IgG1 N297Q (antibody, V domains shown)
VH: B3 VH with I48M, K67R, A68V, V72T, K74T, S91T
VL: B3 VL
notes: also called H4/L2 N297Q
B17: H3-21G6 / L3-21G6 (Table 2, constant region not stated) (antibody, V domains shown)
VH: B3 VH with A16S, M70I, R84S, D89E, S91T
VL: B3 VL with S7T, P12S, V13Y, E17Q
notes: human kappa light chain; also called H3/L3
B18: H2-21G6 / L3-21G6 (Table 2, constant region not stated) (antibody, V domains shown)
VH: B3 VH
VL: B3 VL with S7T, P12S, V13Y, E17Q
notes: human kappa light chain; also called H2/L3
B19: H3-21G6 / L2-21G6 (Table 2, constant region not stated) (antibody, V domains shown)
VH: B3 VH with A16S, M70I, R84S, D89E, S91T
VL: B3 VL
notes: human kappa light chain; also called H3/L2
B20: H2-21G6 / L1-21G6 (Table 2, constant region not stated) (antibody, V domains shown)
VH: B3 VH
VL: B4 VL
notes: human kappa light chain; also called H2/L1
B21: H4-21G6 / L2-21G6 (Table 3B, constant region not stated) (antibody, V domains shown)
VH: B3 VH with I48M, K67R, A68V, V72T, K74T, S91T
VL: B3 VL
notes: human kappa light chain; also called H4/L2
B22: H1-21G6 / L3-21G6 (Table 2, constant region not stated) (antibody, V domains shown)
VH: B3 VH with K12V, V20L, R38K, M70L, T76A, R84S, D89E, S91T
VL: B3 VL with S7T, P12S, V13Y, E17Q
notes: human kappa light chain; also called H1/L3

Target: T1, N2 peptide (non-muscle myosin …)
Test: SPR (BIACORE X100), antibody captured by anti-human Fc, N2 peptide in solution
Description: (§1) The remaining sequences represent the germline sequences with the highest homology that encode productive antibody. All of the humanized sequences maintain the murine 21G6 CDR regions which are shown inside the boxes in FIG. 1. The humanized variable regions were cloned into a vector containing wild type human IgG1, human IgG1 containing a mutation at amino acid 297 (Asn 297 to Q297), human IgG4 containing a mutation at amino acid 228 (serine to proline) and human kappa light chain. Each antibody (heavy and light) combination was expressed by transient co-transfection in 293A cells (in the presence of low Ig serum). The antibody containing supernatants were collected and analyzed for binding to the N2 peptide by ELISA and BIACORE™ X100 system. All experiments were performed using a BIACORE™ X100 system. For antibody capture experiments, a CM5 chip was prepared by 10 ul/minute injection of EDC/NHS (N-ethyl-N′-(3-dimethylaminopropyl) carbodiimide (EDC), N-hydroxysuccinimide (NHS) for 7 minutes, followed by a 10 ul/minute injection of anti-human Fc (GE Lifesciences) at a concentration of 25 ug/ml in sodium acetate at pH 5 for 3 minutes. Ethanolamine-HCl was injected for 7 minutes at 10 ul/minute. The chimeric or humanized antibodies were captured onto flow cell 2 and N2 peptide at varying concentrations was flowed over flow cells 1 and 2 at a rate of 30 ul/minute with a contact time of 120 seconds and a dissociation period of 120 seconds. Complete removal of captured antibody was accomplished by regeneration with 3M MgCl2 for 30 seconds at a flow rate of 10 ul/minute. For peptide immobilized experiments, a CM5 chip was prepared by 10 ul/minute injection of EDC/NHS (N-ethyl-N′-(3-dimethylaminopropyl) carbodiimide (EDC), N-hydroxysuccinimide (NHS) for 7 minutes, followed by a 10 ul/minute injection of NEUTRAVIDIN® protein (ThermoFisher Pierce) at a concentration of 5 ug/ml in sodium acetate, pH 5 to an immobilization response of 100-200RU. Ethanolamine-HCl was injected for 7 minutes at 10 ul/minute. Biotin-labeled N2 peptide was captured on flow channel 2 with the goal of an experimental Rmax of about 50-100RU. Purified chimeric or humanized antibodies were flowed over both flow channels at a rate of 30 ul/min for a contact time of 120 seconds and allowed to dissociate for 600 seconds.

Kd [µM]	Binder
6 to 7	B1
4.1	B2
6.4 to 8.4	B3
20	B4
3.1 to 3.7	B5
7.9	B6
17	B7
6.6 to 7.7	B8
9.8 to 11	B9
11.5	B10
20.9	B11
9.56	B12
9	B13
9.38	B14
8.8	B15

Target: T1, N2 peptide (non-muscle myosin …)
Test: SPR (BIACORE X100), IgG capture and direct immobilization of antibody, N2 peptide in solution
Description: The remaining sequences represent the germline sequences with the highest homology that encode productive antibody. All of the humanized sequences maintain the murine 21G6 CDR regions which are shown inside the boxes in FIG. 1. The humanized variable regions were cloned into a vector containing wild type human IgG1, human IgG1 containing a mutation at amino acid 297 (Asn 297 to Q297), human IgG4 containing a mutation at amino acid 228 (serine to proline) and human kappa light chain. Each antibody (heavy and light) combination was expressed by transient co-transfection in 293A cells (in the presence of low Ig serum). The antibody containing supernatants were collected and analyzed for binding to the N2 peptide by ELISA and BIACORE™ X100 system. All experiments were performed using a BIACORE™ X100 system. […]

Kd [µM]	Binder
6 to 11	B16

Target: T2, Biotin-labeled N2 peptide
Test: SPR (BIACORE X100), biotin-N2 peptide on NeutrAvidin chip, antibody in solution; kd/ka (monovalent)
Description: as §1

Kd [µM]	Binder
0.8	B2
0.9	B17
0.14	B18
0.64	B19
0.66	B20
0.1	B21
1.58	B22

Target: T2, Biotin-labeled N2 peptide
Test: SPR (BIACORE X100), biotin-N2 peptide on NeutrAvidin chip, antibody in solution; steady state affinity
Description: as §1, with “The” for “The remaining sequences represent the germline sequences with the highest homology that encode productive antibody. All of the humanized sequences maintain the murine 21G6 CDR regions which are shown inside the boxes in FIG. 1. The”

Kd [µM]	Binder
0.113	B2
0.68	B18
1	B22

Source: patent US20160376353A1 (DECIMMUNE THERAPEUTICS, published 2016)
